Data set [1] is described as follows: folding stability dG unfold from trypsin proteolysis; higher = more stable. An outline of the steps: (§1)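 Bayesian fitting of sequencing counts gave K50 for each design. Unfolding free energy followed by setting this against a sequence-predicted unfolded-state K50 and a shared folded-state K50, either per protease or with trypsin and chymotrypsin combined. The designs, under 80 residues and lacking cysteine, were digested in a PA-tagged cDNA display format at 11 threefold-diluted protease concentrations and without protease, and only those with AlphaFold2 dimer inter-PAE above 15 were kept.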

The nature of data set [2]: folding stability dG unfold from chymotrypsin proteolysis; higher = more stable. An outline of the steps:
as §1

Data set [3] in a line: folding stability dG unfold (combined trypsin and chymotrypsin); higher = more stable. An outline of the steps:
as §1

± gives the half width of the 95% confidence interval.

“SAGGKKKVFLLENGELVVFDPETGKLEPVKLPEIPLTVEVEFEEGEGKIRVTVTNPAGLKLEFEFDFSAGGS [r16_453_TrMRF]”: the figures for the “folding stability dG unfold” value in data set [1], in data set [2] and in data set [3] were 2.21 ± 0.12 kcal/mol, 3.69 ± 0.1 kcal/mol and 3.19 ± 0.15 kcal/mol, respectively.

Consider “SAGGKKKVTIEIRKNPEEPGKYIIRVKVDGKEIEIEVSEEDLEEILAALKKLLPPGAKIEKIEIRELPSAGG [r13_519_TrROS_Hall]”, for which the “folding stability dG unfold” value in data set [1] is 2.38 ± 0.098 kcal/mol; in data set [2], 3.85 ± 0.081 kcal/mol; in data set [3] it was 3.45 ± 0.12 kcal/mol.

In the case of “SAGGKKKYRIKITYKDEGKLYEVPEDVKATVDPNNVVYIEVDSKEAVDELVKAIAPKDGLEVEVEPGSAGGS [r8_131_TrMRF]”, the results for the “folding stability dG unfold” value in data set [1], in data set [2] and in data set [3] were 0.52 ± 0.044 kcal/mol, 1.18 ± 0.087 kcal/mol and 0.916 ± 0.093 kcal/mol, respectively.

For “SAGGKKLLIKVRIEVFNENGELVREEEIEIEVEGMSEEELEELARELLAKLPPENVKIEVEIVELEESAGGS [r16_774_TrROS_Hall]”, the entries for the “folding stability dG unfold” value in data set [1], in data set [2] and in data set [3] were 4.34 ± 0.94 kcal/mol, 4.31 ± 0.37 kcal/mol and 4.16 ± 0.35 kcal/mol, respectively.

With “SAGGKKPKIEVKIEFDEETGKLRIEIRTEDGKLIAEKEIEIDGVLFKVKVIVKDGKLVIEIEAFPKKSAGGS [r16_631_TrROS_Hall]”, the results for the “folding stability dG unfold” value in data set [1], in data set [2] and in data set [3] were 2.79 ± 0.15 kcal/mol, 3.99 ± 0.12 kcal/mol and 3.65 ± 0.25 kcal/mol, respectively.

With “SAGGKKPKKLTPEQIEELAKALAPEGAEVKVEVVEVTEKTVVVKITVKDKETGEEKTIEITLPLPEESAGGS [r16_486_TrROS_Hall]”, the “folding stability dG unfold” value in data set [1] was found to be 2.45 ± 0.18 kcal/mol; in data set [2], 1.73 ± 0.14 kcal/mol; in data set [3] it was 2.24 ± 0.22 kcal/mol.

With “SAGGKKPKVKKVKVKLTLVDPETGEEVEVEAELYELPDGYVVLTVRNKKTGKTYRFVFKDGKLYLEPVSAGG [r13_117_TrROS_Hall]”, the “folding stability dG unfold” value came out at 2.88 ± 0.1 kcal/mol in data set [1], 4.46 ± 0.11 kcal/mol in data set [2] and 4.12 ± 0.35 kcal/mol in data set [3].

For the sequence “SAGGKKTVKIEIVLPKEELEELLKKLLEEAKKKGLKVEVKVELKEVEVEVNGKKKKVLVLKVEIKVEPSAGG [r13_974_TrROS_Hall]”, the “folding stability dG unfold” value worked out at 3.17 ± 0.12 kcal/mol in data set [1], 3.76 ± 0.14 kcal/mol in data set [2] and 3.55 ± 0.19 kcal/mol in data set [3].

“SAGGKKTYKVRIEIKVTDPNGKKRTIEIELEVPESEEEAEKLAKELAEKLKEKGYKVEIVKIEVEPLSAGGS [r16_525_TrROS_Hall]”: the results for the “folding stability dG unfold” value in data set [1], in data set [2] and in data set [3] were 3.98 ± 0.2 kcal/mol, 4.08 ± 0.064 kcal/mol and 4.03 ± 0.12 kcal/mol, respectively.

“SAGGKKYKVIKEIEITLENGKKIKIKLIEYNEKTNEYILEITYPDGKKITITVPKGMSIEEALKKLLSSAGG [r13_470_TrROS_Hall]”: the “folding stability dG unfold” value in data set [1] amounted to 2.37 ± 0.16 kcal/mol; in data set [2] it was 2.52 ± 0.051 kcal/mol; in data set [3], 2.41 ± 0.12 kcal/mol.

Take “SAGGKKYVLIKVKVRVEKEVNGEKKEVELELEILVPVDEETGKTPEEKAKELAKKLPPEVTEVKIEPVSAGG [r13_335_TrROS_Hall]”: the results for the “folding stability dG unfold” value in data set [1], in data set [2] and in data set [3] were 1.63 ± 0.15 kcal/mol, 2.86 ± 0.061 kcal/mol and 2.21 ± 0.31 kcal/mol, respectively.

Regarding “SAGGKLKIKIGDKEYTVESVEIIEERPLPGGGPVYLIRLKFKDGPALIEIPPNIPSSISNNGTLVAGSAGGS [r16_638_TrMRF]”, the “folding stability dG unfold” value stood at 1.36 ± 0.04 kcal/mol in data set [1], 1.95 ± 0.058 kcal/mol in data set [2] and 1.75 ± 0.095 kcal/mol in data set [3].

“SAGGKLPLPPGTEVEFLFRSPLDPRRLYLVRVRFEPVPPDRLRLRPRVFNPETGEEVEFEFEVPLDEGSAGG [r13_268_TrMRF]”: the results for the “folding stability dG unfold” value in data set [1], in data set [2] and in data set [3] were 2.46 ± 0.041 kcal/mol, 3.234 ± 0.025 kcal/mol and 3 ± 0.052 kcal/mol, respectively.

For the sequence “SAGGKLQLLLRSPDGNVEVALSFEKLPDGKVKVTATVRNKKTGRTYRLEVTFDLKTKKIEIKLEELPSAGGS [r16_684_TrROS_Hall]”, the “folding stability dG unfold” value in data set [1] was 4.78 ± 0.22 kcal/mol; in data set [2], 6.24 ± 0.14 kcal/mol; in data set [3], greater than 6 kcal/mol.

The values above are taken from the supplement of paper PMC12764529.
